Results reported in US8975044B2, “Polynucleotides encoding for frizzled-binding agents and uses thereof” (OncoMed Pharmaceuticals, Inc., priority 2008, dated 2015).

T1: FZD8 (Homo sapiens, UniProt Q9H461, F127V/G126N)
T1 construct: N-terminus of the Fri domain of FZD8 in turn fused to the transmembrane domain and intracellular domain of CD4 protein; expressed in transfected cells; host or cells: HEK293
T1 sequence (Q9H461 28-158 G126N/F127V): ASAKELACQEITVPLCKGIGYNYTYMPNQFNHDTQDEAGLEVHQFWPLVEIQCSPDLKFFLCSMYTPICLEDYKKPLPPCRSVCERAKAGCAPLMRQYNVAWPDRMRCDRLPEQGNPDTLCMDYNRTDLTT

T2: FZD8 (Homo sapiens, UniProt Q9H461)
T2 construct: Fc
T2 sequence (Q9H461 28-157 limits assumed): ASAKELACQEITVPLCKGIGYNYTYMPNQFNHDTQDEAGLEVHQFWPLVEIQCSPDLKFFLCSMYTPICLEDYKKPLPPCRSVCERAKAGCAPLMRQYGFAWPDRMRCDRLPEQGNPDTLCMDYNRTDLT

B1: 18R5: human anti-FZD antibody; VH SEQ ID NO:10 (as 18R8), VL SEQ ID NO:14; binds FZD1, 2, 5, 7, 8 (antibody, V domains shown)
VH: EVQLVESGGGLVQPGGSLRLSCAASGFTFSHYTLSWVRQAPGKGLEWVSVISGDGSYTYYADSVKGRFTISSDNSKNTLYLQMNSLRAEDTAVYYCARNFIKYVFANWGQGTLVTVSS
VL: DIELTQPPSVSVAPGQTARISCSGDNIGSFYVHWYQQKPGQAPVLVIYDKSNRPSGIPERFSGSNSGNTATLTISGTQAEDEADYYCQSYANTLSLVFGGGTKLTVLG
modifications: 18R5/18R8 heavy chain variable region (VH); 18R5 light chain variable region (VL)
B2: 18R8: human anti-FZD antibody from phage display; VH SEQ ID NO:10, VL SEQ ID NO:12; binds FZD1, 2, 5, 7, 8 (antibody, V domains shown)
VH: B1 VH
VL: DIELTQPPSVSVAPGQTARISCSGDKLGKKYASWYQQKPGQAPVLVIYEKDNRPSGIPERFSGSNSGNTATLTISGTQAEDEADYYCSSFAGNSLEVFGGGTKLTVLG
modifications: 18R5/18R8 heavy chain variable region (VH); 18R8 light chain variable region (VL)
B3: 44R24: anti-FZD5/8 IgG antibody, VH SEQ ID NO:85, VL SEQ ID NO:86; ATCC deposit no. PTA-10311 (antibody, V domains shown)
VH: EVQLVESGGGLVQPGGSLRLSCAASGFTFSSYYITWVRQAPGKGLEWVSTISYSSSNTYYADSVKGRFTISRDNSKNTLYLQMNSLRAEDTAVYYCARSIVFDYWGQGTLVTVSS
VL: DIELTQPPSVSVAPGQTARISCSGDALGNRYVYWYQQKPGQAPVLVIPSGIPERFSGSNSGNTATLTISGTQAEDEADYYCGSWDTRPYPKYVFGGGTKLTVLG
modifications: 44R24 VH; 44R24 VL
notes: ATCC deposit no; PTA-10311

Legend:
FZD8 [1] = target: T1, FZD8; assay: Epitope mapping by FACS on FZD8 Fri domain variants on HEK293 cells; type: binding; conditions: amino acids 126-127 mutated from FG to NV
Description: To identify the FZD epitope recognized by the 18R8 IgG antibody, epitope mapping was performed. Flow cytometry analysis of cell surface expressed FZD was utilized to measure antibody binding. Mammalian expression plasmid vectors comprising a CMV promoter upstream of polynucleotides that encode an N-terminal signal sequence FLAG epitope tag fused to the N-terminus of the Fri domain of FZD8 in turn fused to the transmembrane domain and intracellular domain of CD4 protein were generated by standard recombinant technology. This expression construct allows expression of the FZD8 Fri domain on the cell surface, as well as expression of a FLAG epitope tag to monitor expression. Site-direct mutagenesis was then used to modify selected amino acids within the extracellular domain of FZD. HEK293 cells were co-transfected with expression vectors encoding the FZD and the transfection marker GFP. Forty-eight hours post-transfection, cells were collected in suspension and incubated on ice with anti-FZD antibody or control IgG to detect background antibody binding. The cells were washed and primary antibodies detected with anti-antibody secondary antibodies conjugated to a fluorescent chromophore. Labeled cells were then analyzed by flow cytometry to measure the binding of anti-FZD antibody to cell surface FZD.
Epitope mapping for the anti-FZD antibody 44R24 was performed in a manner similar to that described above in Example 5 for the antibodies 18R8 and 18R5. The ability of 44R24 to bind to a similar epitope as 18R8 was assessed by flow cytometry using a series of amino acid variants of FZD8 previously shown to disrupt binding of 18R8 (see Example 5 and FIGS. 6 and 7).

FZD7 = target: T3, FZD7 (Homo sapiens, UniProt O75084); assay: FACS binding to FZD-transfected HEK293 cells; conditions: transfected HEK293 cells
T3 construct: plasmid DNA expressing full-length FZD1, 2, 5, 7 or 8; expressed in transfected cells; host or cells: HEK293
Description: (§1) To measure antibody binding to FZD by flow cytometry HEK293 cells were co-transfected with FZD expression vectors and the transfection marker GFP. Twenty-four to forty-eight hours post-transfection, cells were collected in suspension and incubated on ice with anti-FZD antibodies (10 μg/ml unless otherwise indicated) or control IgG to detect background antibody binding. The cells were washed and primary antibodies detected with Fc domain-specific secondary antibodies conjugated to a fluorescent chromophore (e.g. phycoerythrin conjugated anti-human IgG). Labeled cells were then analyzed by flow cytometry to identify anti-FZD antibodies that specifically recognize cell surface expression of FZD protein. Monoclonal antibodies 18R5 and 18R8 recognized FZD on transfected cells. As shown in FIG. 1 and FIG. 2, both 18R8 and 18R5 bind to multiple FZD including FZD1, FZD2, FZD5, FZD7, and FZD8. To examine the relative ability of 18R8 and 18R5 to bind to each FZD protein, titration analysis was conducted wherein the amount of antibody in the binding reaction was varied (FIG. 2).
(§2) HEK293 cells were co-transfected with a plasmid DNA expressing full-length FZD1, 2, 5, 7 or 8 along with another plasmid expressing the reporter gene GFP used as a transfection marker. Fugene 6 (Roche) was used as transfection reagent according to the manufacturer directions. Transfected cells were incubated twenty-four to forty-eight hours at 37° C. and 5% CO2. The anti-FZD mAbs were then diluted in a final volume of 50 μl starting with a concentration of 20 μg/ml and serially diluted 4-fold for a total of 8 dilutions. Each FZD/GFP 293 transiently tranfectant pool was collected in suspension and 100,000 transfected cells were incubated on ice 30-60 minutes with the diluted anti-FZD mAb to be tested. The cells were washed and bound anti-Fzd antibodies were detected with a secondary anti-human antibody conjugated to a fluorescent chromophore. Labeled cells were then detected and counted by FACS. The FACS data generated were expressed in Mean Fluorescence Intensity (MFI) units. GraphPad Prism software was used to graph and analyze the data. MFIs were plotted as a function of Ab concentration to establish dose-response curves. A non-linear regression was applied to the numbers to fit the curve and calculate EC50s.

FZD2 = target: T4, FZD2 (Homo sapiens, UniProt Q14332); assay: FACS binding to FZD-transfected HEK293 cells; conditions: for binding to cell-surface FZD2 by flow cytometry (in words): transfected HEK293 cells
T4 construct: plasmid DNA expressing full-length FZD1, 2, 5, 7 or 8; expressed in transfected cells; host or cells: HEK293
T4 sequence (Q14332 24-565): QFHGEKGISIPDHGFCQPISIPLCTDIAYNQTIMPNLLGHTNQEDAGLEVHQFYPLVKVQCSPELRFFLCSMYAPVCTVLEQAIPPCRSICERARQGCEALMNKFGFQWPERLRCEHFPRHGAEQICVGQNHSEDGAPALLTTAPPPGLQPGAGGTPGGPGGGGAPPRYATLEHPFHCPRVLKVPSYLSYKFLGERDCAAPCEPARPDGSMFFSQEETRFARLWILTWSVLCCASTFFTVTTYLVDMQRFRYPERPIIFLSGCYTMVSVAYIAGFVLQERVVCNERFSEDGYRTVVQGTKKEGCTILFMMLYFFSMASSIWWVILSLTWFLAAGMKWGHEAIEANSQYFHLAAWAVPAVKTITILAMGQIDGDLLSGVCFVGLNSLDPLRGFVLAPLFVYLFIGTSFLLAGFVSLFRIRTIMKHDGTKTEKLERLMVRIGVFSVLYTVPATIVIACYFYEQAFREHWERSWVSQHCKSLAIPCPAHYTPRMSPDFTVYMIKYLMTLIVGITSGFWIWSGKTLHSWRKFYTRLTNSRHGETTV
Description: as §1, §2

FZD8 [2] = target: T5, FZD8 (Homo sapiens, UniProt Q9H461); assay: FACS binding to FZD-transfected HEK293 cells; conditions: for EC50: FACS MFI dose-response, full-length FZD in HEK293, 20 μg/ml 4-fold dilutions; for binding to cell-surface FZD8 by flow cytometry (in words): transfected HEK293 cells
T5 construct: plasmid DNA expressing full-length FZD1, 2, 5, 7 or 8; expressed in transfected cells; host or cells: HEK293
Description: as §1, §2
T5 sequence (Q9H461 28-694): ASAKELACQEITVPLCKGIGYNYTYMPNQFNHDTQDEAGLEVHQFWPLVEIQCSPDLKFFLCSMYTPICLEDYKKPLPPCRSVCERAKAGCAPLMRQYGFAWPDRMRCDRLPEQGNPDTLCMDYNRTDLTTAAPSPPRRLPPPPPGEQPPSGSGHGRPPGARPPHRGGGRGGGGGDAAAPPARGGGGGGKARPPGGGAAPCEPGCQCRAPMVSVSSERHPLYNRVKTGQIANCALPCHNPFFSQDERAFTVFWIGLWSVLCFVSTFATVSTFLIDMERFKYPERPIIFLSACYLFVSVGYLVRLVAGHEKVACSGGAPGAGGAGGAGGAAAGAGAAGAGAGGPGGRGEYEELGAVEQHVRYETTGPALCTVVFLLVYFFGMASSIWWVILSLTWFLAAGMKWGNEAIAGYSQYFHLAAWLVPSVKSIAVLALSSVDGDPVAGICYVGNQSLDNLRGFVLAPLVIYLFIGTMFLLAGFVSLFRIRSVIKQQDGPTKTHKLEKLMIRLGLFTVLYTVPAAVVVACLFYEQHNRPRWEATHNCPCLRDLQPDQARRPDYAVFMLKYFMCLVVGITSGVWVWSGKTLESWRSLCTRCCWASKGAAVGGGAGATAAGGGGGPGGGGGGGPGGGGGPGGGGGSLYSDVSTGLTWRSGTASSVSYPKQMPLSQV

FZD1 = target: T6, FZD1 (Homo sapiens, UniProt Q9UP38); assay: FACS binding to FZD-transfected HEK293 cells; conditions: transfected HEK293 cells
T6 construct: plasmid DNA expressing full-length FZD1, 2, 5, 7 or 8; expressed in transfected cells; host or cells: HEK293
T6 sequence (Q9UP38 70-647): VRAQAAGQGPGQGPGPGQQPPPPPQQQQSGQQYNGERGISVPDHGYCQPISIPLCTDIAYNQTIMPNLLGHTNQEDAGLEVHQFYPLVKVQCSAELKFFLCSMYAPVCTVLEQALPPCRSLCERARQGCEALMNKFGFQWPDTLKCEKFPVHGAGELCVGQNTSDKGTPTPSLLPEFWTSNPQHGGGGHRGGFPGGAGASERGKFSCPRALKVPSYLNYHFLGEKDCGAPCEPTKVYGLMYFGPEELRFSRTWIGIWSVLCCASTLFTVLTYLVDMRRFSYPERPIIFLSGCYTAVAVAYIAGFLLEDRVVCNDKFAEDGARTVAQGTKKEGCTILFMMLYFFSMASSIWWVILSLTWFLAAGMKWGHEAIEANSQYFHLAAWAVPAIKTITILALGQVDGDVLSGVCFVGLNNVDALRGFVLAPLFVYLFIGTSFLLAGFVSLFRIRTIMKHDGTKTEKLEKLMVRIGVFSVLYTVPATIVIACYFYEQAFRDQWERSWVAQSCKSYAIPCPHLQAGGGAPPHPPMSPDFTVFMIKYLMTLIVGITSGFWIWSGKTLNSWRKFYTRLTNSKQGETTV
Description: as §1, §2

FZD5 = target: T7, FZD5 (Homo sapiens, UniProt Q13467); assay: FACS binding to FZD-transfected HEK293 cells; conditions: for EC50: FACS MFI dose-response, full-length FZD in HEK293, 20 μg/ml 4-fold dilutions; for binding to cell-surface FZD5 by flow cytometry (in words): transfected HEK293 cells
T7 construct: plasmid DNA expressing full-length FZD1, 2, 5, 7 or 8; expressed in transfected cells; host or cells: HEK293
T7 sequence (Q13467 27-585): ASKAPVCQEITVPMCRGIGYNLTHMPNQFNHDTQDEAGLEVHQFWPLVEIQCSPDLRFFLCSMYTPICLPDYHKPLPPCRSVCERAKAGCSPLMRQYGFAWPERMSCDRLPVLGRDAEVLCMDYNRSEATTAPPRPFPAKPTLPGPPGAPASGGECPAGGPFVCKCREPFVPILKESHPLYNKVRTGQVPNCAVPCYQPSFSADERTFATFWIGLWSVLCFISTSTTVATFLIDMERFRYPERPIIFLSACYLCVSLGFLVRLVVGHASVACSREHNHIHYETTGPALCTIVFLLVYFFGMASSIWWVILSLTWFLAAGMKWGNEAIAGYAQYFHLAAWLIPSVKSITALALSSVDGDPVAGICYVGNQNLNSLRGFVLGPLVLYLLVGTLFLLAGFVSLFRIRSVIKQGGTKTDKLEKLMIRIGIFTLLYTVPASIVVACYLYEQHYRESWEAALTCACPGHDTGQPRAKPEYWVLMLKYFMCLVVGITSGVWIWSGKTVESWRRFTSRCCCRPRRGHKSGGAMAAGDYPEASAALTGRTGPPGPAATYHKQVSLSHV
Description: as §1, §2

FZD8 [3] = target: T2, FZD8; assay: Biacore affinity to recombinant Fzd Fc protein; type: binding; conditions: IgG antibody; Fzd Fc immobilized on CM5 Biacore chip
Description: The KDs of 18R8 and 18R5 antibodies were determined using the Biacore 2000 system from Biacore Lifescience (GE Healthcare). Specifically, purified anti-Fzd7 antibodies were serially diluted in 2-fold increments from 100 to 0.78 nM in HBS-P (0.01 M HEPES pH 7.4, 0.15 M NaCl, 0.005% v/v Surfactant P20). Each dilution was tested against recombinant Fzd Fc proteins immobilized onto a CM5 Biacore chip. The association and dissociation rates were measured and KD values determined using the Biaevaluation software program (Table 5, below).

C28 tumor cells = assay: C28 colon tumor growth study; type: in vivo, Nod-Scid mice; conditions: 15 mg/kg intraperitoneally twice per week
Description: C28 tumor cells were injected sub-cutaneously in Nod-Scid mice. Tumors were allowed to grow until they had reached an average volume of 126 mm^3. Tumor bearing animals were groups were randomized into four groups (n=10 mice per group) and treated with either Control Ab (black squares), 18R8 (gray triangles), 44R24 (black open circles), or 18R5 (gray circles) (FIG. 58). Antibodies were dosed intraperitoneally at 15 mg/kg, twice per week. Tumor volumes are indicated.

| Molecule | binding to FZD8 variant (FZD8 [1]) | binding to cell-surface FZD7 by flow cytometry (in words) (FZD7) | binding to cell-surface FZD2 by flow cytometry (in words) (FZD2) | EC50 (FZD8 [2]) [nM] | binding to cell-surface FZD8 by flow cytometry (in words) (FZD8 [2]) | binding to cell-surface FZD1 by flow cytometry (in words) (FZD1) | EC50 (FZD5) [nM] | binding to cell-surface FZD5 by flow cytometry (in words) (FZD5) | Kd (FZD8 [3]) [nM] | tumor growth relative to the control group (C28 tumor cells) | EC50 (nM) Fzd2 (FZD2; FACS MFI dose-response, full-length FZD in HEK293, 20 μg/ml 4-fold dilutions) |
| --- | --- | --- | --- | --- | --- | --- | --- | --- | --- | --- | --- |
| B1 | reduced staining | bind and greater binding potency and High affinity binding | bind and greater binding potency and High affinity binding | 12 | greater binding potency and bind | bind and greater binding potency and High affinity binding | 1.1 | bind and greater binding potency and High affinity binding | 5.8 | reduced growth relative to the control group |  |
| B2 | similarly lost | bind | bind |  | bind | bind |  | bind | 29.3 | had no effect |  |
| B3 | reduced staining | does not bind | does not bind | 1.09 | good affinity | does not bind | 1.89 | good affinity |  | reduced growth relative to the control group | no binding |
